Measured values published in patent US20210079063A1 (UNIVERSITY OF CHICAGO, published 2021).

How the values were obtained:
[1] = biological target: T1, maltose-binding protein (MBP) (UniProt P0AEX9 27-396 = MBP); assay: yeast surface display titration, KD column of the drawn table [a]
[2] = biological target: T1, maltose-binding protein (MBP); assay: yeast surface display: therMonobody on yeast, soluble target titrated 0-1000 nM, mean fluorescence, fit of the 1:1 binding model
Excerpt: (§1) FIG. 6A-C. therMonobody library designs and generated clones. Amino acid sequences of therMonobodies generated from the loop-only library (a) and the side-and-loop library (b). The locations of diversified residues in the libraries are shown as spheres on the STOTEMP4 structure. “X” denotes a mixture of 30% Tyr, 13% Ser, 10% Gly, 5% Asp, 5% Leu, 5% Pro, 5% Trp and 2.5% each of all pther amino acids except for Cys and Met; “B”, a mixture of Ala, Ser, Thr, Asn, Asp and Tyr; “U”, a mixture of Ser, Thr, Asn and Tyr; “Z”, a mixture of Ala, Glu, Lys and Thr. (c) Binding measurements by yeast surface display of representative therMonobodies for each combination of library and target. The mean fluorescence intensities of yeast cells displaying therMonobodies are plotted as a function of the target concentration. The error indicated are the standard deviations from curve fitting of the 1:1 binding model.

[3] = biological target: T1, maltose-binding protein (MBP); assay: yeast surface display titration, KD column of the drawn table [b]
[4] = biological target: T2, yeast small ubiquitin-like modifier (ySUMO) (yeast, UniProt Q12306 1-98 = SUMO, limits assumed); assay: as above
T2 construct: Target protein of the library selection; Construct not described

[5] = biological target: T2, yeast small ubiquitin-like modifier …; assay: yeast surface display: therMonobody on yeast, soluble target titrated 0-2000 nM, mean fluorescence, fit of the 1:1 binding model
Excerpt: as §1

[6] = biological target: T3, Abl SH2 (UniProt P00519 127-217, limits assumed); assay: yeast surface display titration, KD column of the drawn table [a]
T3 construct: domain: SH2; Target protein of the library selection
T3 sequence (looked up): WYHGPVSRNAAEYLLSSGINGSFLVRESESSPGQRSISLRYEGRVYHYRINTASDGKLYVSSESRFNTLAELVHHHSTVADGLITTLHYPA

[7] = biological target: T3, Abl SH2; assay: yeast surface display: therMonobody on yeast, soluble target titrated 0-1000 nM, mean fluorescence, fit of the 1:1 binding model
Excerpt: as §1

[8] = biological target: T2, yeast small ubiquitin-like modifier …; assay: yeast surface display titration, KD column of the drawn table [a]
[9] = biological target: T3, Abl SH2; assay: yeast surface display titration, KD column of the drawn table [b]

T2 sequence (Q12306 1-98 limits assumed): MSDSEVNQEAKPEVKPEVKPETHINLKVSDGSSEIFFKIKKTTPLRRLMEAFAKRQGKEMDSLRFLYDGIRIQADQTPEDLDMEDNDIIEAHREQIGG

B1: MBPMbL08 (designed binder)
therMonobody (FN3 domain): SSSSVPQIASIASGPETITVKWYWSSYYWSPFYYYITYWSSSSQKVTINVGNVTSYTIKHLKPGVTYYIQIVPYWYQYFPRYGYPSDIISATPSSS
notes: loop-only library clone selected on MBP
[1]
  Kd: 12 nM
[2]
  Kd: 12 nM

B2: MBPMbL17 (designed binder)
therMonobody (FN3 domain): SSSSVPQIASIAVGPETITVKWYRIPHAYYYYITYWSSSSQKVTINVGNVTSYTIKHLKPGVTYYIQIVPYYPSPWYLSYGYPSDIISATPSSS
notes: as for B1
[1]
  Kd: 41 nM

B3: MBPMbS09 (designed binder)
therMonobody (FN3 domain): SSSSVPQIASIASGPETITVKWYDTNASYYYISYWSYSTATVAIAVGNVTSYTIKHLKPGVTYYIQIVPYYGYRPYPSYGYPSDIISATPSSS
notes: side-and-loop library clone selected on MBP
[3]
  Kd: 9 nM
[2]
  Kd: 9 nM

B4: SUMOMbS34 (designed binder)
therMonobody (FN3 domain): SSSSVPQIASIASGPETITVKWYDTNASYYYIYYWSGPYYYKKVTITVGNVTSYTIKHLKPGVTYYIQIVPYHVHDWGYYYYPSDIISATPSSS
notes: side-and-loop library clone selected on ySUMO
[4]
  Kd: 20 nM
[5]
  Kd: 20 nM

B5: SUMOMbS08 (designed binder)
therMonobody (FN3 domain): SSSSVPQIASIASGPETITVKWYDTNASYYYIYYWSLQYYREAVKIEVGNVTSYTIKHLKPGVTYYIQIVPFEEFGFGWYSGDPSDIISATPSSS
notes: as for B4
[4]
  Kd: 65 nM

B6: SUMOMbS20 (designed binder)
therMonobody (FN3 domain): SSSSVPQIASIAVGPETITVKWYDTNASYYYIYYWSKHPKKVKIEVGNVTSYTIKHLKPGVTYYIQIVPFISYYDLYYSGDPSDIISATPSSS
notes: as for B4
[4]
  Kd: 95 nM

B7: AblSH2MbL04 (designed binder)
therMonobody (FN3 domain): SSSSVPQIASIASGPETITVKWYYYSIDVYYYITYWSSSSQKVTINVGPQTSYTIKHLKPGVTYYIQIVPYSFYSDSDYGYYPSDIISATPSSS
notes: loop-only library clone selected on Abl SH2
[6]
  Kd: 78 nM
[7]
  Kd: 78 nM

B8: SUMOMbL14 (designed binder)
therMonobody (FN3 domain): SSSSVPQIASIASGPETITVKWYDTNASYYYITYWSSSSQKVTINVGSPISYTIKHLKPGVTYYIQIVPYYTIGPDEYYYIPSDIISATPSSS
notes: loop-only library clone selected on ySUMO
[8]
  Kd: 44 nM
[5]
  Kd: 44 nM

B9: AblSH2MbS02 (designed binder)
therMonobody (FN3 domain): SSSSVPQIASIASGPETITVKWYDTNASFYYIYYWSTYPVTEEVEIKVGNVTSYTIKHLKPGVTYYIQIVPQYWYLGAGYPSDIISATPSSS
notes: side-and-loop library clone selected on Abl SH2
[9]
  Kd: 13 nM
[7]
  Kd: 13 nM

B10: AblSH2MbS07 (designed binder)
therMonobody (FN3 domain): SSSSVPQIASIASGPETITVKWYDTNASYYYIYYWSSYPVTEEVEIKVGNVTSYTIKHLKPGVTYYIQIVPGYYSYPYYLSPSDIISATPSSS
notes: as for B9
[9]
  Kd: 827 nM

B11: MBPMbS01 (designed binder)
therMonobody (FN3 domain): SSSSVPQIASIASGPETITVKWYDTNASYYYISYWSADYDSEAVAIAVGNVTSYTIKHLKPGVTYYIQIVPYKANSYYPGYGYPSDIISATPSSS
notes: as for B3
[3]
  Kd: 33 nM

B12: MBPMbS12 (designed binder)
therMonobody (FN3 domain): SSSSVPQIASIASGPETITVKWYDTNASYYYISYWSGQSETVAIEVGNVTSYTIKHLKPGVTYYIQIVPYYPGYYPVHYVPSDIISATPSSS
notes: as for B3
[3]
  Kd: 484 nM
